Reference: PMC2652662, “Studies of a Ring-Cleaving Dioxygenase Illuminate the Role of Cholesterol Metabolism in the Pathogenesis of Mycobacterium tuberculosis” (PLoS Pathogens, 2009)

What was measured:
Oc1cccc(-c2ccccc2)c1O = assay: purified protein; details: pH 7.0; 25.0 °C
[1] = system: Cc1ccc(O)c(O)c1CC[C@@H]1C(=O)CC[C@]2(C)C(=O)CC[C@@H]12; assay: purified protein; details: pH 7.0; 25.0 °C
[2] = system: Cc1cc(Cl)c(O)c(O)c1CCc1ccccc1Cl; assay: purified protein; details: pH 7.0; 25.0 °C
[3] = system: Cc1ccc(O)c(O)c1CCc1ccccc1Cl; assay: purified protein; details: pH 7.0; 25.0 °C
HsaC = target: T1, HsaC (Mycobacterium tuberculosis, UniProt P9WNW7); type: biochemical; details: 20 mM HEPES, 80 mM NaCl, pH 7.0, 5% O2, 25°C; slow substrate, mechanism-based oxidative inactivation
T1 construct: full-length, recombinant in E. coli, purified anaerobically, no tag mentioned; Fe(II) enzyme; gene 903 bp; octamer
T1 sequence (P9WNW7 whole entry): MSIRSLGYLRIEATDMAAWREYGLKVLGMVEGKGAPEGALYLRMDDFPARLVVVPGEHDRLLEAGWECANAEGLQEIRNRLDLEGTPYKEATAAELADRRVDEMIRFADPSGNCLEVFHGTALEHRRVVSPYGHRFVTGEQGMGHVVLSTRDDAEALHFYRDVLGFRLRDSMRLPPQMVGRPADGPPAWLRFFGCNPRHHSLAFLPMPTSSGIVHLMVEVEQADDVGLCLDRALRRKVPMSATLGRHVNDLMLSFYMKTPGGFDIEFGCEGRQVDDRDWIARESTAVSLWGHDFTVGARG

Molecule | Km (Oc1cccc(-c2ccccc2)c1O) | kcat/Km (Oc1cccc(-c2ccccc2)c1O) [M⁻¹ s⁻¹] | Km [1] | kcat/Km [1] [M⁻¹ s⁻¹] | Km [2] | kcat/Km [2] [M⁻¹ s⁻¹] | Km [3] | kcat/Km [3] [M⁻¹ s⁻¹] | Km (HsaC) [µM]
HsaC (Mycobacterium tuberculosis H37Rv) | 10 (2) µM | 160000 | 1.1 (0.2) µM | 1.5e+07 | 3.2 (0.3) µM | 85000 | 4.8 (0.6) µM | 1.4e+06 | –
Oc1cccc(-c2c(Cl)cccc2Cl)c1O [2′,6′-diCl DHB] | – | – | – | – | – | – | – | – | 6.7
